Measurements as given in the Immune Epitope Database (IEDB).
Values belong to the sequence of their own block, whether it stands above or below them.

Key:
HLA-A*02:01 [1] = test: IEDB peptide-MHC binding, purified MHC/competitive/fluorescence; filed as Kd, often an IC50 or EC50 that approximates it; ≥ and ≤ were set here for values at or beyond the usual limits of such assays
HLA-A*02:03 = test: as above
HLA-A*02:06 = test: as above
HLA-A*26:02 = test: as above
HLA-A*68:02 [2] = test: as above
HLA-A*01:01 = test: IEDB peptide-MHC binding, purified MHC/direct/fluorescence; filed as Kd, often an IC50 or EC50 that approximates it; ≥ and ≤ were set here for values at or beyond the usual limits of such assays
HLA-A*02:01 [3] = test: as above
HLA-A*11:01 = test: as above
HLA-A*24:03 = test: as above
HLA-A*26:01 = test: as above; details: source organism: Variola virus
HLA-A*26:03 = test: as above
HLA-A*31:01 [4] = test: as above
HLA-A*69:01 [5] = test: as above; details: source organism: Camelpox virus M-96
HLA-B*07:02 = test: as above
HLA-B*08:02 = test: as above; details: source organism: Variola virus
HLA-B*15:17 [6] = test: as above
HLA-B*57:01 = test: as above
HLA-B*58:01 = test: as above
HLA-B*08:01 = test: IEDB peptide-MHC binding, purified MHC/competitive/fluorescence; filed as Kd, often an IC50 or EC50 that approximates it; ≥ and ≤ were set here for values at or beyond the usual limits of such assays; details: source organism: Vaccinia virus WR
HLA-B*15:01 [7] = test: as above
HLA-B*18:01 [8] = test: as above; details: source organism: Vaccinia virus WR
HLA-B*39:01 = test: as above
HLA-A*32:07 = test: as above
HLA-B*15:42 = test: as above
HLA-B*27:20 = test: as above; details: source organism: Escherichia coli 536
HLA-B*40:01 [9] = test: as above; details: source organism: Escherichia coli 536
HLA-B*40:13 = test: as above; details: source organism: Escherichia coli 536
HLA-B*45:06 = test: as above
HLA-B*83:01 = test: as above
HLA-A*03:01 = test: IEDB peptide-MHC binding, purified MHC/direct/fluorescence; filed as Kd, often an IC50 or EC50 that approximates it; ≥ and ≤ were set here for values at or beyond the usual limits of such assays
HLA-B*18:01 [10] = test: as above; details: source organism: Mycobacterium tuberculosis
HLA-B*27:05 = test: as above
HLA-B*38:01 = test: as above; details: source organism: Mycobacterium tuberculosis str. Haarlem
HLA-B*40:01 [11] = test: as above
HLA-B*46:01 = test: as above
HLA-B*48:01 = test: as above
HLA-B*51:01 = test: as above; details: source organism: Mycobacterium tuberculosis
HLA-A*31:01 [12] = test: IEDB peptide-MHC binding, purified MHC/competitive/fluorescence; filed as Kd, often an IC50 or EC50 that approximates it; ≥ and ≤ were set here for values at or beyond the usual limits of such assays; details: source organism: Mycobacterium tuberculosis variant bovis BCG str. Pasteur 1173P2
HLA-A*69:01 [13] = test: as above; details: source organism: Mycobacterium tuberculosis variant bovis BCG str. Pasteur 1173P2
HLA-A*68:02 [14] = test: IEDB peptide-MHC binding, purified MHC/direct/fluorescence; filed as Kd, often an IC50 or EC50 that approximates it; ≥ and ≤ were set here for values at or beyond the usual limits of such assays; details: source organism: Brucella abortus
HLA-B*15:01 [15] = test: as above; details: source organism: Brucella abortus
HLA-B*15:17 [16] = test: IEDB peptide-MHC binding, purified MHC/competitive/fluorescence; filed as Kd, often an IC50 or EC50 that approximates it; ≥ and ≤ were set here for values at or beyond the usual limits of such assays; details: source organism: Brucella abortus S19
HLA-A*24:02 = test: IEDB peptide-MHC binding, purified MHC/direct/fluorescence; filed as Kd, often an IC50 or EC50 that approximates it; ≥ and ≤ were set here for values at or beyond the usual limits of such assays; details: source organism: Orthohantavirus hantanense
HLA-C*04:01 = test: IEDB peptide-MHC binding, purified MHC/competitive/fluorescence; filed as Kd, often an IC50 or EC50 that approximates it; ≥ and ≤ were set here for values at or beyond the usual limits of such assays; details: source organism: Hantaan virus 76-118
[17] = source organism: Human immunodeficiency virus 1
[18] = source organism: Camelpox virus M-96
[19] = source organism: Vaccinia virus WR
[20] = source organism: Escherichia coli 536
[21] = source organism: Mycobacterium tuberculosis
[22] = source organism: Mycobacterium tuberculosis variant bovis BCG str. Pasteur 1173P2
[23] = source organism: Brucella abortus
[24] = source organism: Hantaan virus 76-118

Sequence: EELKSLFNTV
Kd (HLA-A*02:01 [1]; [17]): 1.67 µM
Kd (HLA-A*02:03; [17]): ≥ 20 µM
Kd (HLA-A*02:06; [17]): 0.515 µM
Kd (HLA-A*26:02; [17]): 1.08 µM
Kd (HLA-A*68:02 [2]; [17]): 0.326 µM

Sequence: EYYFRNEVF
Kd (HLA-A*01:01; [18]): ≥ 20 µM
Kd (HLA-A*02:01 [3]; [18]): ≥ 20 µM
Kd (HLA-A*11:01; [18]): ≥ 20 µM
Kd (HLA-A*24:03; [18]): 0.195 µM
Kd (HLA-A*26:01): ≥ 20 µM
Kd (HLA-A*26:03; source organism: Variola virus): ≥ 20 µM
Kd (HLA-A*31:01 [4]; [18]): ≥ 20 µM
Kd (HLA-A*69:01 [5]): ≥ 20 µM
Kd (HLA-B*07:02; [18]): ≥ 20 µM
Kd (HLA-B*08:02): ≥ 20 µM
Kd (HLA-B*15:17 [6]; [18]): ≥ 20 µM
Kd (HLA-B*57:01; [18]): ≥ 20 µM
Kd (HLA-B*58:01; [18]): ≥ 20 µM
Kd (HLA-A*02:06; [19]): 0.153 µM
Kd (HLA-A*26:02; [19]): 3.49 µM
Kd (HLA-A*68:02 [2]; [19]): 3.39 µM
Kd (HLA-B*08:01): ≥ 20 µM
Kd (HLA-B*15:01 [7]; [19]): 4.38 µM
Kd (HLA-B*18:01 [8]): 0.0078 µM
Kd (HLA-B*39:01; [19]): ≥ 20 µM

Kd (HLA-A*32:07; [20]): 0.0307 µM
Kd (HLA-B*15:01 [7]; [20]): 0.354 µM
Kd (HLA-B*15:42; [20]): 5.18 µM
Kd (HLA-B*27:20): 0.0016 µM
Kd (HLA-B*39:01; [20]): ≥ 5 µM
Kd (HLA-B*40:01 [9]): 1.87 µM
Kd (HLA-B*40:13): 0.0514 µM
Kd (HLA-B*45:06; [20]): ≥ 5 µM
Kd (HLA-B*83:01; [20]): ≥ 5 µM
Sequence: RQRAVRMVL

Sequence: RVEESRARL
Kd (HLA-A*01:01; [21]): ≥ 20 µM
Kd (HLA-A*03:01; [21]): ≥ 20 µM
Kd (HLA-A*11:01; [21]): ≥ 20 µM
Kd (HLA-B*15:17 [6]; [21]): 0.0194 µM
Kd (HLA-B*18:01 [10]): ≥ 20 µM
Kd (HLA-B*27:05; [21]): ≥ 20 µM
Kd (HLA-B*38:01): ≥ 20 µM
Kd (HLA-B*40:01 [11]; [21]): ≥ 20 µM
Kd (HLA-B*46:01; [21]): ≥ 20 µM
Kd (HLA-B*48:01; [21]): ≥ 20 µM
Kd (HLA-B*51:01): ≥ 20 µM
Kd (HLA-B*57:01; [21]): 2.5 µM
Kd (HLA-B*58:01; [21]): ≥ 20 µM
Kd (HLA-A*02:01 [1]; [22]): ≥ 20 µM
Kd (HLA-A*02:03; [22]): ≥ 20 µM
Kd (HLA-A*31:01 [12]): ≥ 20 µM
Kd (HLA-A*69:01 [13]): ≥ 20 µM
Kd (HLA-B*15:01 [7]; [22]): ≥ 20 µM

Sequence: RFRCVGPAP
Kd (HLA-A*01:01; [23]): ≥ 20 µM
Kd (HLA-A*02:01 [3]; [23]): ≥ 20 µM
Kd (HLA-A*03:01; [23]): ≥ 20 µM
Kd (HLA-A*11:01; [23]): ≥ 20 µM
Kd (HLA-A*26:03; source organism: Brucella suis 1330): ≥ 20 µM
Kd (HLA-A*31:01 [4]; [23]): ≥ 20 µM
Kd (HLA-A*68:02 [14]): ≥ 20 µM
Kd (HLA-B*07:02; [23]): ≥ 20 µM
Kd (HLA-B*15:01 [15]): ≥ 20 µM
Kd (HLA-B*27:05; [23]): ≥ 20 µM
Kd (HLA-B*40:01 [11]; [23]): ≥ 20 µM
Kd (HLA-B*46:01; [23]): ≥ 20 µM
Kd (HLA-B*48:01; [23]): ≥ 20 µM
Kd (HLA-B*57:01; [23]): ≥ 20 µM
Kd (HLA-B*58:01; [23]): ≥ 20 µM
Kd (HLA-A*26:02; source organism: Brucella abortus S19): ≥ 20 µM
Kd (HLA-B*15:17 [16]): ≥ 20 µM

Sequence: RYRTAVCGL
Kd (HLA-A*24:02): 0.024 µM
Kd (HLA-A*24:03; source organism: Orthohantavirus hantanense): 0.0067 µM
Kd (HLA-A*32:07; [24]): 0.0076 µM
Kd (HLA-B*15:42; [24]): ≥ 5 µM
Kd (HLA-B*45:06; [24]): ≥ 5 µM
Kd (HLA-B*83:01; [24]): ≥ 5 µM
Kd (HLA-C*04:01): ≥ 5 µM
